Assay results reported in US20230416371A1 (Chugai, published 2023).

How the values were obtained:
[1] = molecular target: T1, human FcγRIIIa F (allotype F158) extracellular domain (human, UniProt P08637 17-208); assay: SPR Biacore 8K+; KD for FcγRIIb divided by KD for this FcγR
T1 construct: extracellular domain; also called hFcγRIIIaF
Protocol: (§1) The extracellular domains of FcγRs were produced by the method described in WO2014104165. The interaction between the produced antibodies and human FcγRs was analyzed using Biacore 8K+by the method below. For the running buffer, 50 mM Na-Phosphate, 150 mM NaCl, and 0.05% Tween20 (pH 7.4) was used, and measurement was performed at 25° C. The sensor chip used was a Series S SA chip (GE Healthcare) onto which CaptureSelect Human Fab-kappa Kinetics Biotin Conjugate (Thermo Fisher Scientific) was immobilized. An antibody of interest was captured onto this chip, and each FcγR diluted with the running buffer was allowed to interact with it. The chip was regenerated using 10 mM Glycine-HCl (pH 1.5), and repeatedly used to capture antibodies and perform measurement. The dissociation constants KD (mol/L) of each antibody for FcγRs were calculated using Biacore Insight Evaluation Software, with a steady state affinity model for the dissociation constant for FcγRIIb and a 1:1 Langmuir binding model for the dissociation constants for the other FcγRs (Table 2).

[2] = molecular target: T2, human FcγRIIIa V (allotype V158) extracellular domain (human, UniProt P08637 17-208); assay: as above
T2 construct: extracellular domain; also called hFcγRIIIaV
Protocol: as §1

T1 sequence (P08637 17-208): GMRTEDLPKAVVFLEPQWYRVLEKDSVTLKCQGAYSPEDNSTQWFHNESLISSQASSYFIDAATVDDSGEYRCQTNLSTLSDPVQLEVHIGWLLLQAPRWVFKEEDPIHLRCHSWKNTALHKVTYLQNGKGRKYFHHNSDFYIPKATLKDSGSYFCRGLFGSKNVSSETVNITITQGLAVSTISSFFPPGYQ
T2 sequence (P08637 17-208 F176V): as the sequence (P08637 17-208) above, with F160V counted along it

A/I ratio (KD for FcγRIIb divided by KD for each FcγR) [1]: 975
A/I ratio (KD for FcγRIIb divided by KD for each FcγR) [2]: 2030
B1: EGL-ART6 (H240-Kn462/L73-k0//H240-HI445/L73-k0) (antibody, human IgG1, kappa)
heavy 1: QDQLVQSGAEVKKPGASVKVSCKASGFNIKDTYIQWVRQAPGQGLEWMGRIDPLRKQTKYREKFEGRVTITADTSTNTAYMELSSLRSEDTAVYYCVRSGREFDYWGQGTLVTVSSASTKGPSVFPLAPSSKSTSGGTAALGCLVKDYFPEPVTVSWNSGALTSGVHTFPAVLQSSGLYSLSSVVTVPSSSLGTQTYICNVNHKPSNTKVDKKVEPKSCDKTHTCPPCPAPEFQWGPMVFLFPPKPKDVLMISRTPEVTCVVVDVSDEEPEVKFNWYVDGVEVHNAKTKPREEQYNATYRVVSVLPVLHQDWLNGKEYKCKVSNDALPAPIEKTISKAKGQPREPQVCTLPPSRDELTKNQVSLWCLVKGFYPSDIAVEWESNGQPENNYKTTPPVLDSDGSFFLYSKLTVDKSRWQQGNVFSCSVMHEALHNHYTQKSLSLSP
heavy 2: QDQLVQSGAEVKKPGASVKVSCKASGFNIKDTYIQWVRQAPGQGLEWMGRIDPLRKQTKYREKFEGRVTITADTSTNTAYMELSSLRSEDTAVYYCVRSGREFDYWGQGTLVTVSSASTKGPSVFPLAPSSKSTSGGTAALGCLVKDYFPEPVTVSWNSGALTSGVHTFPAVLQSSGLYSLSSVVTVPSSSLGTQTYICNVNHKPSNTKVDKKVEPKSCDKTHTCPPCPAPELLAGPSVFLFPPKPKDVLMISRTPEVTCVVVDVSHEEPEVKFNWYVDGVEVHNAKTKPREEQYNATYRVVSVLPVLHQDWLNGKEYKCKVSNDALPKPDEETISKAKGQPREPQVYTLPPSRCELTKNQVSLSCAVKGFYPSDIAVEWESNGQPENNYKTTPPVLDSDGSFFLVSKLTVDKSRWQQGNVFSCSVMHEALHNHYTQKSLSLSP
light: DIQMTQSPSSLSASVGDRVTITCRASQDIHKYIAWYQQKPGQAPRLLIQYTSTLQPGVPSRFSGSGSGTDYTFTISSLQPEDIATYYCLQYEQLRTFGGGTKVEIKRTVAAPSVFIFPPSDEQLKSGTASVVCLLNNFYPREAKVQWKVDNALQSGNSQESVTEQDSKDSTYSLSSTLTLSKADYEKHKVYACEVTHQGLSSPVTKSFNRGEC
notes: Anti-human Epiregulin IgG1 with heterodimeric (knobs-into-holes) Fc variant
